Test results published in patent US20220267460A1 (MOMENTA PHARMACEUTICALS, published 2022).

T1: human FcγRIIa-H variant (Histidine at amino acid 131) (human, UniProt P12318 34-317)
T1 sequence (looked up): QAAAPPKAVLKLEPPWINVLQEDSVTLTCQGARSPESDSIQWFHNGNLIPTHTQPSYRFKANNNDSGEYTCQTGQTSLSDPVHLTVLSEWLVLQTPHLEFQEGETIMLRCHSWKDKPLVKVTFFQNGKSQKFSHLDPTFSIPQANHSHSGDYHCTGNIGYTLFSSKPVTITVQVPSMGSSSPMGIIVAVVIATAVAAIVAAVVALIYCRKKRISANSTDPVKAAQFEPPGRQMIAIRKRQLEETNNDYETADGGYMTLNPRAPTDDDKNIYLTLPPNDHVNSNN


Tests used:
Assay in all cases: cell-based or functional assay
FcγRIIIa [1] = molecular target: T2, FcγRIIIa (UniProt P08637 17-254)
[2] = molecular target: T1, human FcγRIIa-H variant (Histidine at …)
[3] = molecular target: T1, human FcγRIIa-H variant (Histidine at …); remark: listed apart in the source
FcγRIIIa [4] = molecular target: T2, FcγRIIIa; remark: listed apart in the source

T2 sequence (P08637 17-254 F176V limits assumed): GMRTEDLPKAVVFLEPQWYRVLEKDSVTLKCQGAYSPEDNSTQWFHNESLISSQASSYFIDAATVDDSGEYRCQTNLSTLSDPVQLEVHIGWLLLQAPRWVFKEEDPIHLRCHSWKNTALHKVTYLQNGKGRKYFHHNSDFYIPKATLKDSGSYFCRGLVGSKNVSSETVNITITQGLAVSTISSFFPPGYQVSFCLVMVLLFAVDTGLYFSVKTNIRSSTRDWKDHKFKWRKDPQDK

Binder | EC50 (nM) Mean, FcγRIIIa signaling in ADCC reporter assay (HEK-PD-L1 target cells, Jurkat/FcγRIIIa effector cells, luciferase) (FcγRIIIa [1]) | EC50 (nM) Mean, FcγRIIa signaling in ADCP reporter assay (HEK-PD-L1 target cells, Jurkat/FcγRIIa-H effector cells, luciferase) [2] | EC50 (nM) Mean, FcγRIIa signaling in ADCP reporter assay (Raji target cells, Jurkat/FcγRIIa-H effector cells, luciferase) [3] | EC50 (nM) Mean, FcγRIIIa signaling in ADCC reporter assay (Raji target cells, Jurkat/FcγRIIIa effector cells, luciferase) (FcγRIIIa [4])
Fc-antigen binding domain construct 43 (PD-L1) (antibody, human IgG1, lambda) heavy 1: not shown not shown heavy 2: not shown light: QSALTQPASVSGSPGQSITISCTGTSSDVGGYNYVSWYQQHPGKAPKLMIYDVSNRPSGVSNRFSGSKSGNTASLTISGLQAEDEADYYCSSYTSSSTRVFGTGTKVTVLGQPKANPTVTLFPPSSEELQANKATLVCLISDFYPGAVTVAWKADGSPVKAGVETTKPSKQSNNKYAASSYLSLTPEQWKSHRSYSCQVTHEGSTVEKTVAPTECS | 0.028 nM | 0.037 nM | – | –
Fc-antigen binding domain construct 44 (PD-L1) (antibody, human IgG1, lambda) heavy 1: not shown not shown heavy 2: not shown light: QSALTQPASVSGSPGQSITISCTGTSSDVGGYNYVSWYQQHPGKAPKLMIYDVSNRPSGVSNRFSGSKSGNTASLTISGLQAEDEADYYCSSYTSSSTRVFGTGTKVTVLGQPKANPTVTLFPPSSEELQANKATLVCLISDFYPGAVTVAWKADGSPVKAGVETTKPSKQSNNKYAASSYLSLTPEQWKSHRSYSCQVTHEGSTVEKTVAPTECS | – | 0.033 nM | – | –
Fc-antigen binding domain construct 43 (CD20) (antibody, human IgG1, kappa) heavy 1: QVQLVQSGAEVKKPGSSVKVSCKASGYAFSYSWINWVRQAPGQGLEWMGRIFPGDGDTDYNGKFKGRVTITADKSTSTAYMELSSLRSEDTAVYYCARNVFDGYWLVYWGQGTLVTVSSASTKGPSVFPLAPSSKSTSGGTAALGCLVKDYFPEPVTVSWNSGALTSGVHTFPAVLQSSGLYSLSSVVTVPSSSLGTQTYICNVNHKPSNTKVDKKVEPKSCDKTHTCPPCPAPELLGGPSVFLFPPKPKDTLMISRTPEVTCVVVDVSHEDPEVKFNWYVDGVEVHNAKTKPREEQYNSTYRVVSVLTVLHQDWLNGKEYKCKVSNKALPAPIEKTISKAKGQPREPQVYTLPPCRDKLTKNQVSLWCLVKGFYPSDIAVEWESNGQPENNYKTTPPVLDSDGSFFLYSKLTVDKSRWQQGNVFSCSVMHEALHNHYTQKSLSLSPGKGGGGGGGGGGGGGGGGGGGGDKTHTCPPCPAPELLGGPSVFLFPPKPKDTLMISRTPEVTCVVVDVSHEDPEVKFNWYVDGVEVHNAKTKPREEQYNSTYRVVSVLTVLHQDWLNGKEYKCKVSNKALPAPIEKTISKAKGQPREPQVYTLPPSRKELTKNQVSLTCLVKGFYPSDIAVEWESNGQPENNYKTTPPVLKSDGSFFLYSKLTVDKSRWQQGNVFSCSVMHEALHNHYTQKSLSLSPGQ not shown heavy 2: not shown light: DIVMTQTPLSLPVTPGEPASISCRSSKSLLHSNGITYLYWYLQKPGQSPQLLIYQMSNLVSGVPDRFSGSGSGTDFTLKISRVEAEDVGVYYCAQNLELPYTFGGGTKVEIKRTVAAPSVFIFPPSDEQLKSGTASVVCLLNNFYPREAKVQWKVDNALQSGNSQESVTEQDSKDSTYSLSSTLTLSKADYEKHKVYACEVTHQGLSSPVTKSFNRGEC | – | – | 7.8 nM | 0.86 nM
Fc-antigen binding domain construct 44 (CD20) (antibody, human IgG1, kappa) heavy 1: QVQLVQSGAEVKKPGSSVKVSCKASGYAFSYSWINWVRQAPGQGLEWMGRIFPGDGDTDYNGKFKGRVTITADKSTSTAYMELSSLRSEDTAVYYCARNVFDGYWLVYWGQGTLVTVSSASTKGPSVFPLAPSSKSTSGGTAALGCLVKDYFPEPVTVSWNSGALTSGVHTFPAVLQSSGLYSLSSVVTVPSSSLGTQTYICNVNHKPSNTKVDKKVEPKSCDKTHTCPPCPAPELLGGPSVFLFPPKPKDTLMISRTPEVTCVVVDVSHEDPEVKFNWYVDGVEVHNAKTKPREEQYNSTYRVVSVLTVLHQDWLNGKEYKCKVSNKALPAPIEKTISKAKGQPREPQVYTLPPCRDKLTKNQVSLWCLVKGFYPSDIAVEWESNGQPENNYKTTPPVLDSDGSFFLYSKLTVDKSRWQQGNVFSCSVMHEALHNHYTQKSLSLSPGKGGGGGGGGGGGGGGGGGGGGDKTHTCPPCPAPELLGGPSVFLFPPKPKDTLMISRTPEVTCVVVDVSHEDPEVKFNWYVDGVEVHNAKTKPREEQYNSTYRVVSVLTVLHQDWLNGKEYKCKVSNKALPAPIEKTISKAKGQPREPQVYTLPPSRKELTKNQVSLTCLVKGFYPSDIAVEWESNGQPENNYKTTPPVLKSDGSFFLYSKLTVDKSRWQQGNVFSCSVMHEALHNHYTQKSLSLSPGQKGGGGGGGGGGGGGGGGGGGGDKTHTCPPCPAPELLGGPSVFLFPPKPKDTLMISRTPEVTCVVVDVSHEDPEVKFNWYVDGVEVHNAKTKPREEQYNSTYRVVSVLTVLHQDWLNGKEYKCKVSNKALPAPIEKTISKAKGQPREPQVYTLPPSRKELTKNQVSLTCLVKGFYPSDIAVEWESNGQPENNYKTTPPVLKSDGSFFLYSKLTVDKSRWQQGNVFSCSVMHEALHNHYTQKSLSLSPGQ not shown heavy 2: not shown light: DIVMTQTPLSLPVTPGEPASISCRSSKSLLHSNGITYLYWYLQKPGQSPQLLIYQMSNLVSGVPDRFSGSGSGTDFTLKISRVEAEDVGVYYCAQNLELPYTFGGGTKVEIKRTVAAPSVFIFPPSDEQLKSGTASVVCLLNNFYPREAKVQWKVDNALQSGNSQESVTEQDSKDSTYSLSSTLTLSKADYEKHKVYACEVTHQGLSSPVTKSFNRGEC | – | – | 0.17 nM | 0.055 nM
